Laboratory results as given in paper PMC2777681.

How the values were obtained:
[1] = molecular target: full-length purified recombinant EWS-FLI1; test: SPR
[2] = molecular target: full-length purified recombinant EWS-FLI1; test: co-IP

PPPLDAVIEA [E9R peptide, Q08211 823-832] gave a response units at 32 μM E9R [1] of 13 R.U, a response units at 32 μM E9R with 10 μM YK-4-279 [1] of 5 R.U and a response units at 64 μM E9R [1] of 17 R.U. For the same binder, the response units at 64 μM E9R with 10 μM YK-4-279 [1] was 7 R.U and the percent of the GST-RHA(647-1075)/EWS-FLI1 association left with 0.1 μM E9R [2] was 50%.
